The assay addresses T1, Human TNFa N-his trimers (human, UniProt P01375 77-233).
T1 construct: Captured at 5 nM on an NTA sensor chip by the N-terminal his-tags; also called His-tagged TNF (produced at ESBATech); not shown: N-terminal his-tag
The assay can be described thus: SPR BIAcore T100, His-tagged human TNF trimers captured on NTA chip, scFv as analyte. (In general: Surface plasmon resonance follows binding to a sensor surface in real time, without labels.)

T1 sequence (P01375 77-233 limits assumed): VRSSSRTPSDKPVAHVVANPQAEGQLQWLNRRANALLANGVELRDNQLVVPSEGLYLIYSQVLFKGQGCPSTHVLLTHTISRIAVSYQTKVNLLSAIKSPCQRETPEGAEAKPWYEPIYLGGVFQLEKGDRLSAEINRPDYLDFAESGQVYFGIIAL

B1: EP34_max (scFv)
chain: EIVMTQSPSTLSASLGDRVIITCQSSQSVYGNIWMAWYQQKSGKAPKLLIYQASKLASGVPSRFSGSGSGAEFSLTISSLQPDDFATYYCQGNFNTGDRYAFGQGTKLTVLGGGGGSGGGGSGGGGSGGGGSEVQLVESGGGLVQPGGSLRLSCTASGFTISRSYWICWVRQAPGKGLEWVACIYGDNDITPLYANWAKGRFPVSTDTSKNTVYLQMNSLRAEDTAVYYCARLGYADYAYDLWGQGTLVTVSS
Consider B1, for which the Kd (in general, the equilibrium constant for the complex coming apart) turned out to be 0.0286 nM.

B2: EP35_max (scFv)
chain: EIVMTQSPSTLSASVGDRVIITCQASQSISNLLAWYQQKPGKAPKLLIVAASKLASGVPSRFSGSGSGTEFTLTISSLQPDDFATYYCQQGWSHTNVDNTFGQGTKLTVLGGGGGSGGGGSGGGGSGGGGSEVQLVESGGGSVQPGGSLRLSCTASGFSFSVGYWICWVRQAPGKGLEWVACIDAGTSGGTYYATWAKGRFTISKDTSKNTVYLQMNSLRAEDTATYYCARGVSSNGYYFKLWGQGTTVTVSS
In turn, B2 registered a Kd of 0.194 nM.

B3: EP42_min (scFv)
chain: EIVMTQSPSTLSASVGDRVIITCQSTESVYKNNYLAWYQQKPGKAPKLLIYDASTLASGVPSRFSGSGSGAEFTLTISSLQPDDFATYYCAGYYRSGFGTANGSFGQGTKLTVLGGGGGSGGGGSGGGGSGGGGSEVQLVESGGGLVQPGGSLRLSCAASGFTFRNDAISWVRQAPGKGLEWVSYISDWGIKYYASWVKGRFTISRDNSKNTLYLQMNSLRAEDTAVYYCAKGAPGAGDNGIWGQGTLVTVSS
The molecule B3 returned a dissociation constant (Kd) of 58.7 nM. Compared with the last molecule, the Kd is about 300-fold higher.

B4: EP6_max (scFv)
chain: EIVMTQSPSTLSASVGDRVIITCQASESIYSGLAWYQQKPGKAPKLLIYQASTLASGVPSRFSGSGSGTDFTLAISSLQPDDFATYYCQQGFGTSNVENPFGQGTKLTVLGGGGGSGGGGSGGGGSGGGGSEVQLVESGGGLVQPGGSLRLSCTVSGFSLSRYGVSWVRQAPGKGLEWVGTIGEAGRAYYANWARSRSTISRDTSKNTVYLQMNSLRAEDTAVYYCARGEVFNNGWGAFNIWGQGTLVTVSS
The molecule B4 showed a Kd of 0.512 nM.

B5: EP43_min (scFv)
chain: EIVMTQSPSTLSASVGDRVIITCQASQSISDWLAWYQQKPGKAPKLLIYGASRLASGVPSRFSGSGSGAEFTLTISSLQPDDFATYYCQQGWSDSYVDNLFGQGTKLTVLGGGGGSGGGGSGGGGSGGGGSEVQLVESGGGLVQPGGSLRLSCAASGFSLSSGAMSWVRQAPGKGLEWVSVIISSGATYYASWAKGRFTISRDNSKNTLYLQMNSLRAEDTAVYYCAKGGPDDSNSMGTFDPWGQGTLVTVSS
B5: the Kd was 5540 nM. Against the preceding molecule, the Kd is about 11000-fold higher.

B6: EP19_max (scFv)
chain: EIVMTQSPSTLSASVGDRVIITCQASDNIYRGLAWYQQKPGKAPKLLIYDASTLQSGVPSRFSGSGSGTQFTLTISSLQPDDFATYYCLGVYGYSSDDGAAFGQGTKLTVLGGGGGSGGGGSGGGGSGGGGSEVQLVESGGGLVQPGGSLRLSCTVSGFSLNSNEISWVRQAPGKGLEWVGYIGNGGMTHYASWAKGRFTISRDTSKNTVYLQMNSLRAEDTAVYYCASSVEYTDLYYLNIWGQGTLVTVSS
B6 registered a Kd of 2.91 nM.

B7: EP1_max (scFv)
chain: EIVMTQSPSTLSASVGDRVIITCQSTESVYKNNYLAWYQQKPGKAPKLLIYDASTLASGVPSRFSGSGSGTEFTLTISSLQPDDFATYYCAGYYRSGSGTANGSFGQGTKLTVLGGGGGSGGGGSGGGGSGGGGSEVQLVESGGGSVQPGGSLRLSCTVSGIDLSNDAISWVRQAPGKGLEWVAYISDWSIRYYANWAQGRFTISKDTSKNTVYLQMNSLRAEDTATYYCARGAPGAGDNGIWGQGTTVTVSS
With B7, the Kd came out at 56.9 nM.

B8: EP15_max (scFv)
chain: EIVMTQSPSTLSASVGDRVIITCQASENIYTSLAWYQQKPGKAPKLLIYSASTLASGVPSRFSGSGSGTEFTLTISSLQPDDFATYYCQQGFATSNVENPFGQGTKLTVLGGGGGSGGGGSGGGGSGGGGSEVQLVESGGGSVQPGGSLRLSCTVSGFSLSRYGVSWVRQAPGKGLEWVGAIGETGRAYYANWAKSRSTISRDTSKNTVYLQMNSLRAEDTATYYCARGEEFNNGWGAFNIWGQGTTVTVSS
Regarding B8, the Kd turned out to be 1.48 nM.

(Values after patent EP3964526A1 (Novartis AG, dated 2022).)
